Measured values reported in article PMC9499402, “Crystal Structure of an Archaeal Tyrosyl-tRNA Synthetase Bound to Photocaged L-Tyrosine and Its Potential Application to Time-Resolved X-ray Crystallography” (International Journal of Molecular Sciences, 2022).

Target: the molecule itself
Assay: crystal structure; oNBTyrRS (10 mg/mL) co-crystallised with oNBTyr (1.4 mg/mL), sitting-drop vapor diffusion at 20 °C; reservoir 20% PEG300, 3% PEG8000, 10% glycerol, 100 mM Tris-HCl pH 8.0; dimer in the asymmetric unit; 2.79 Å

B1: oNBTyrRS, O-(2-nitrobenzyl)-L-tyrosine-specific variant of Methanocaldococcus jannaschii tyrosyl-tRNA synthetase (Y32G, L65G, F108E, D158S, L162E, D286R) (enzyme, UniProt Q57834 1-306, looked up)
chain: MDEFEMIKRNTSEIISEEELREVLKKDEKSAGIGFEPSGKIHLGHYLQIKKMIDLQNAGFDIIIGLADLHAYLNQKGELDEIRKIGDYNKKVFEAMGLKAKYVYGSEEQLDKDYTLNVYRLALKTTLKRARRSMELIAREDENPKVAEVIYPIMQVNSIHYEGVDVAVGGMEQRKIHMLARELLPKKVVCIHNPVLTGLDGEGKMSSSKGNFIAVDDSPEEIRAKIKKAYCPAGVVEGNPIMEIAKYFLEYPLTIKRPEKFGGDLTVNSYEELESLFKNKELHPMRLKNAVAEELIKILEPIRKRL
notes: Methanocaldococcus jannaschii tyrosyl-tRNA synthetase (MjTyrRS), UniProt Q57834, with six substitutions; all 306 amino acid residues were modelled in the crystal structure; Residues of the TEV site may remain after cleavage; also called oNBTyr-tRNA synthetase; M. jannaschii oNBTyrRS; source: E. coli Rosetta2 (DE3), purified (HisTrap, TEV cleavage, HisTrap flow-through, desalting, HiTrap Q); not …
stoichiometry N: 2
